# B1: RNA132 (ssRNA)
# RNA: GGGAGGGAAUCAGUGAAUGCUUAUACAUCCCUCCUUGAGCAGUCGAUUAGUUUCGACAGGAGGCUCAC
# Assays:
# [1] = target: Russell's viper venom factor X activator (RVV-X) (UniProt Q7LZ61;Q4PRD1;Q4PRD2 Q7LZ61:189-619,Q4PRD1:24-146,Q4PRD2:25-158); test: EMSA; conditions: tags: Haematologic Technologies
# VEGF165 = VEGF165 (Homo sapiens, UniProt P15692-4 P15692-4:27-191); test: EMSA; IC buffer, 3 mM CaCl2; conditions: tags: R&D Systems or USB; chain copies: 2 (inferred)
# VEGF165, sequence (P15692 other isoform, or with tags, fused parts or gaps): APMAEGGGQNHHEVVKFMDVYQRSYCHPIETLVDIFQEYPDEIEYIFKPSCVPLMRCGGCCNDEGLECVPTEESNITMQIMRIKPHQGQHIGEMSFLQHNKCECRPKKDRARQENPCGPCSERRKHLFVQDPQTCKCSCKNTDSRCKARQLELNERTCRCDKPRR
# Russell's viper venom factor X activator (RVV-X), sequence (Q7LZ61 189-619, chain 1 of 3): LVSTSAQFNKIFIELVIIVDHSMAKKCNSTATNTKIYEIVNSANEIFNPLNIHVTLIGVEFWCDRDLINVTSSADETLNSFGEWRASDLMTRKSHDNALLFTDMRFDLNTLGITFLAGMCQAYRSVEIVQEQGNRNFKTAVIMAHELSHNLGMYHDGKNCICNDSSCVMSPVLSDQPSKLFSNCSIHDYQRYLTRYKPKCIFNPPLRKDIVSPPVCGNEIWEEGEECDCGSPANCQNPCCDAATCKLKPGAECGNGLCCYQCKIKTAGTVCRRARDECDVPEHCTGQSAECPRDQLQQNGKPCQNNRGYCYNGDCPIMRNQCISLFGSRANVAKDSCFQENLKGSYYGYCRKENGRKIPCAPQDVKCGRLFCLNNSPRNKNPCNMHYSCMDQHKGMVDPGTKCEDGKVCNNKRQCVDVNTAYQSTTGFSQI
# Russell's viper venom factor X activator (RVV-X), sequence (Q4PRD1 24-146, chain 2 of 3): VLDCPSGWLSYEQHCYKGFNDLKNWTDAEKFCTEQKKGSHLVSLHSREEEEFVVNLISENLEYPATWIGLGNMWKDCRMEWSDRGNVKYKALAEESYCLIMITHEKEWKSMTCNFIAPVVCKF
# Russell's viper venom factor X activator (RVV-X), sequence (Q4PRD2 25-158, chain 3 of 3): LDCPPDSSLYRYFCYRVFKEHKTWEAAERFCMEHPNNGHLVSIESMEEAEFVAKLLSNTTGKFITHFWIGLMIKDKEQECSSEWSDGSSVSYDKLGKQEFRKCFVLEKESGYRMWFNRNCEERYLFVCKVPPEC
binder,measurement,setting,value
B1,Kd,[1],5.7 nM
same,Kd,VEGF165,5.7 nM

# Reference: patent US8324357, “Universal fieldable assay with unassisted visual detection” (University of Southern California)
